Data on 13 molecules can be found in publication PMC6555819, “Comprehensive study of nuclear receptor DNA binding provides a revised framework for understanding receptor specificity”.

Residue numbers refer to the chain shown, from its start.

B1: NRC3_wobSeed44_DR1_G17T_o1 (dsDNA)
DNA 1: GCTGAATGAGGTTAAATATCAGGGAACGTGGCGTCGGCGATTGACAGCGTAGAATGAAGG
DNA 2: CCTTCATTCTACGCTGTCAATCGCCGACGCCACGTTCCCTGATATTTAACCTCATTCAGC
B2: NRC3_wobSeed28_DR1_A14T_o1 (dsDNA)
DNA 1: GCCCTACTGGGCCTAAGGTCATTGATTCCAATGCTCGCGATTGACAGCGTAGAATGAAGG
DNA 2: CCTTCATTCTACGCTGTCAATCGCGAGCATTGGAATCAATGACCTTAGGCCCAGTAGGGC
B3: NRC3_wobSeed76_DR3_T5A_o1 (dsDNA)
DNA 1: GCCCAACTGGGCCAAAAAGGTCATTGATGCCGATAAGCGATTGACAGCGTAGAATGAAGG
DNA 2: CCTTCATTCTACGCTGTCAATCGCTTATCGGCATCAATGACCTTTTTGGCCCAGTTGGGC
B4: NRC3_wobSeed76_DR3_A17G_o1 (dsDNA)
DNA 1: B3 DNA 1 with A5T, A17G
DNA 2: B3 DNA 2 with T44C, T56A
B5: NRC3_wobSeed39_DR1_A16G_o1 (dsDNA)
DNA 1: GCCGAACTAGGTCAAGGGACAGTGAAAGGCGACGTAGCGATTGACAGCGTAGAATGAAGG
DNA 2: CCTTCATTCTACGCTGTCAATCGCTACGTCGCCTTTCACTGTCCCTTGACCTAGTTCGGC
B6: NRC3_wobSeed4_DR0_C7G_o1 (dsDNA)
DNA 1: GCCCTAGTGGGCCAAGGTCATTGATCAGTCAAAGCAGCGATTGACAGCGTAGAATGAAGG
DNA 2: CCTTCATTCTACGCTGTCAATCGCTGCTTTGACTGATCAATGACCTTGGCCCACTAGGGC
B7: NRC3_wobSeed99_DR4_G16C_o1 (dsDNA)
DNA 1: GCTCTCGGAGGACACCAAAGGTCAGAGCTCGACATCGCGATTGACAGCGTAGAATGAAGG
DNA 2: CCTTCATTCTACGCTGTCAATCGCGATGTCGAGCTCTGACCTTTGGTGTCCTCCGAGAGC
B8: NRC3_wobSeed110_DR4_A15T_o1 (dsDNA)
DNA 1: GCTCTGCTAGGTCATCGATGGTCAGCTAATCTGCTAGCGATTGACAGCGTAGAATGAAGG
DNA 2: CCTTCATTCTACGCTGTCAATCGCTAGCAGATTAGCTGACCATCGATGACCTAGCAGAGC
B9: NRC3_wobSeed110_DR4_C26T_o1 (dsDNA)
DNA 1: B8 DNA 1 with T15A, C26T
DNA 2: B8 DNA 2 with G35A, A46T
B10: NRC3_wobSeed16_DR0_C7A_o1 (dsDNA)
DNA 1: GCCAGCATAGGTCAGGGCCAGTATAGGAGGAACGTTGCGATTGACAGCGTAGAATGAAGG
DNA 2: CCTTCATTCTACGCTGTCAATCGCAACGTTCCTCCTATACTGGCCCTGACCTATGCTGGC
B11: NRC3_wobSeed12_DR0_T19C_o1 (dsDNA)
DNA 1: GCCCGACTGGGGCAAGGTCACCATAACGCACAGCCAGCGATTGACAGCGTAGAATGAAGG
DNA 2: CCTTCATTCTACGCTGTCAATCGCTGGCTGTGCGTTATGGTGACCTTGCCCCAGTCGGGC
B12: NRC3_wobSeed137_DR5_A5T_o1 (dsDNA)
DNA 1: GCATTTGTAGGTTACATCCGGGTCATTCAGGCTATGGCGATTGACAGCGTAGAATGAAGG
DNA 2: CCTTCATTCTACGCTGTCAATCGCCATAGCCTGAATGACCCGGATGTAACCTACAAATGC
B13: NRC3_wobSeed27_DR1_A9T_o1 (dsDNA)
DNA 1: GCACTCGGTGGACAAAGGTCAGAGCTACGCCAGTGAGCGATTGACAGCGTAGAATGAAGG
DNA 2: CCTTCATTCTACGCTGTCAATCGCTCACTGGCGTAGCTCTGACCTTTGTCCACCGAGTGC

Chain of FXR:RXRa (Q96RI1 whole entry, chain 1 of 2): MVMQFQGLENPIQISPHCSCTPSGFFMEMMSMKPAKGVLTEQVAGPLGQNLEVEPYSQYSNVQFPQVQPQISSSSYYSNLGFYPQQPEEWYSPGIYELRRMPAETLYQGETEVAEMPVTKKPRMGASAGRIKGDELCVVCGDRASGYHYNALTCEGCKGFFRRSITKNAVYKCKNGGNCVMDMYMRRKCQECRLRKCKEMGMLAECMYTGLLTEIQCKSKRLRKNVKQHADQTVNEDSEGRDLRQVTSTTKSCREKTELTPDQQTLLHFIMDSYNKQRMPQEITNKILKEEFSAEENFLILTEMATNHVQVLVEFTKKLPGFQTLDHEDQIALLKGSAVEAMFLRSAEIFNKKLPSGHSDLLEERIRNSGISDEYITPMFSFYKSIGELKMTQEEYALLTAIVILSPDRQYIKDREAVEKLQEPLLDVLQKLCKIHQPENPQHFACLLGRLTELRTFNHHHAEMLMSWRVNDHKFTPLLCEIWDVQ
Chain of FXR:RXRa (P19793 whole entry, chain 2 of 2): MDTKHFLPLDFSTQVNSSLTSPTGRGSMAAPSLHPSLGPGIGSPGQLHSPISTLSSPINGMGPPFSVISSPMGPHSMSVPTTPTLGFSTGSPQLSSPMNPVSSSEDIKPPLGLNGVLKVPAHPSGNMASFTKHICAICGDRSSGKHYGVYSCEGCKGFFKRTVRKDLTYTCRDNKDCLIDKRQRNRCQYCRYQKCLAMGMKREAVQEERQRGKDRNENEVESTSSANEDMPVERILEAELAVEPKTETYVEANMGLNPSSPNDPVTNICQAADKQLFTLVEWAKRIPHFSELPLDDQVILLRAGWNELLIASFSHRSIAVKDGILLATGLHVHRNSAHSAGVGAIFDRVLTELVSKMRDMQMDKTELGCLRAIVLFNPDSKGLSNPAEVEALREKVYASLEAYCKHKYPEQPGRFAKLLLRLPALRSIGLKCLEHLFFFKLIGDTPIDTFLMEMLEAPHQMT

The data set concerns the target FXR:RXRa (Homo sapiens, UniProt Q96RI1;P19793 full;full). Description: no ligand; PBM; 270 nM : 90 nM RXRa; PBS pH 7.4, 2% milk, 0.02% Triton X-100, 1 mM DTT, BSA, 0.4 mg/ml salmon testes DNA. The note with it: tags: His kept;His cleaved; copies: 1;1; label: surface-attached array probe. Put shortly:
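On custom Agilent 4×180K arrays, double-stranded probes with 34-nt variable regions carried direct-repeat seeds, single-nucleotide variants, half-site ablations or random human genomic background. Ligand-free nuclear receptor dimers were applied for 1 h, and binding was read with antibodies against each partner (one per run). Binding z-scores come from regression-normalized fluorescence, with the random background probes as reference.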
B1: the binding signal is 3.09 PBM z-score against 500 random probes. As for B2, the figure is 3.15 PBM z-score against 500 random probes. Regarding B3, the binding signal is 3.39 PBM z-score against 500 random probes. To B4 belongs 3.31 PBM z-score against 500 random probes.

On to B5, for which the binding signal is 3.42 PBM z-score against 500 random probes. For the molecule B6, the binding signal is 3.34 PBM z-score against 500 random probes. As for B7, the figure is 3.18 PBM z-score against 500 random probes; as for B8, 3.45 PBM z-score against 500 random probes. Regarding B9, the binding signal is 3.07 PBM z-score against 500 random probes.

As to B10, the binding signal is 3.48 PBM z-score against 500 random probes. As for B11, the figure is 3.29 PBM z-score against 500 random probes; as for B12, 3.26 PBM z-score against 500 random probes. As for B13, the figure is 3.23 PBM z-score against 500 random probes.
